Experimental data taken from patent publication US20200361992A1 (PROTAGONIST THERAPEUTICS, published 2020).
Like-named read-outs stand apart in the source and are kept apart here. Starred links: 1 amine or outer side, 2 acyl side, 3 side chain; linkers in the order of their positions; H or OH if unused. Positions of bridges follow the written chain, without caps; N, C: chain ends. Non-standard residues stand in square brackets, D forms with d. Groups on a side chain read outwards from the residue. Primed or numbered codes have the meaning given here. No end group written: not given here. *: point of attachment. Npc″ = L-nipecotic acid, O=C([C@H]1CCCN([*:1])C1)[*:2]; PEG12 = NCCOCCOCCOCCOCCOCCOCCOCCOCCOCCOCCOCCOCCC(=O)O; NPC = nipecotic acid (L-nipecotic acid); γGlu = O=C(O)[C@H](CCC(=O)[*:2])N[*:1]; Palmitoyl = CCCCCCCCCCCCCCCC(=O)*; NMeF = CN[C@@H](Cc1ccccc1)C(=O)O; αMeF = C[C@](N)(Cc1ccccc1)C(=O)O; β3hF = N[C@H](CC(=O)O)Cc1ccccc1; Isovaleryl = CC(C)CC(=O)*; Npc = nipecotic acid

T1: human ferroportin (SLC40A1) fused in frame with the GFP protein, stably expressed in HEK293 cells (human, UniProt Q9NP59 1-571)
T1 sequence (looked up): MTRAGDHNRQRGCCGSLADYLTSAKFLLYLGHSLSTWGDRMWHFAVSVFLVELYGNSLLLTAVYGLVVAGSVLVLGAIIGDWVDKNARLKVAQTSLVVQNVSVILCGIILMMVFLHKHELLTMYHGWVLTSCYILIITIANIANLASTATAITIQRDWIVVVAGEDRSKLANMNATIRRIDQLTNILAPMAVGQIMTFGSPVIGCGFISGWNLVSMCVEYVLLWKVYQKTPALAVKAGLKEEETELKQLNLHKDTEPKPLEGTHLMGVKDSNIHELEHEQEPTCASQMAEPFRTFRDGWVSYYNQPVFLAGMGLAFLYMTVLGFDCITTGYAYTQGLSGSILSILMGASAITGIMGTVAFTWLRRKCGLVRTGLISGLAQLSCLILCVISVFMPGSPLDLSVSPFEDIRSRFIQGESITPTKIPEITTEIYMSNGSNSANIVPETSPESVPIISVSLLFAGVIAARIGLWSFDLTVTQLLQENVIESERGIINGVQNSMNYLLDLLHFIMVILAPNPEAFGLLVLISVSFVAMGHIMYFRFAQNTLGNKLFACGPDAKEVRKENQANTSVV

B1: Compd ID 170 (peptide)
peptide: DTHXPCIKXKCK
modifications: N-terminal isovaleric acid; Dpa 4; (D)Lys 8; bhPhe 9; Lys(Peg11-Palm) 10; (D)Lys 12; C-terminal amide; disulfide between the two Cys (6 and 11)
B2: Compd ID 225 (peptide)
peptide: Isovaleryl-DTHFPCI[dK]([PEG12-Palmitoyl])F[dK]C-NH2
modifications: disulfide 6-11
SMILES: CCCCCCCCCCCCCCCC(=O)NCCOCCOCCOCCOCCOCCOCCOCCOCCOCCOCCOCCOCCC(=O)NCCCC[C@H]1NC(=O)[C@H]([C@@H](C)CC)NC(=O)[C@@H](NC(=O)[C@@H]2CCCN2C(=O)[C@H](Cc2ccccc2)NC(=O)[C@H](Cc2c[nH]cn2)NC(=O)[C@@H](NC(=O)[C@H](CC(=O)O)NC(=O)CC(C)C)[C@@H](C)O)CSSC[C@@H](C(N)=O)NC(=O)[C@@H](CCCCN)NC(=O)[C@H](Cc2ccccc2)NC1=O
B3: Compd ID 514 (peptide)
chain: DTHFPCIKX
modifications: N-terminal isovaleric acid on each monomer; D-Lys 8; NMe-Phe 9; the two monomers linked through IDA-[(b-Ala)-Palm]; -NH2
B4: Ref. Compd 1 (peptide)
peptide: DTHFPCIKFKPRSKGCK
modifications: N-terminal isovaleric acid; Lys[PEG11-Palm] 10; C-terminal amide; disulfide between the two Cys (6 and 16)
B5: Compd ID 502 (peptide)
chain: DTHFPCIKF
modifications: N-terminal isovaleric acid on each monomer; the two monomers linked through [D-Lys]-Lys[isoGlu-Palm]-NH2
B6: Compd ID 516 (peptide)
chain: DTHFPCIKX
modifications: N-terminal isovaleric acid on each monomer; b-homoPhe 9; the two monomers linked through IDA-[(b-Ala)-Palm]; -NH2
B7: Compd ID 219 (peptide)
peptide: Isovaleryl-DTH[β3hF]PCIK([γGlu-Palmitoyl])[αMeF]C-NH2
modifications: disulfide 6-10
SMILES: CCCCCCCCCCCCCCCC(=O)N[C@@H](CCC(=O)NCCCC[C@@H]1NC(=O)[C@H]([C@@H](C)CC)NC(=O)[C@@H](NC(=O)[C@@H]2CCCN2C(=O)C[C@H](Cc2ccccc2)NC(=O)[C@H](Cc2c[nH]cn2)NC(=O)[C@@H](NC(=O)[C@H](CC(=O)O)NC(=O)CC(C)C)[C@@H](C)O)CSSC[C@@H](C(N)=O)NC(=O)[C@](C)(Cc2ccccc2)NC1=O)C(=O)O
B8: Compd ID 227 (peptide)
peptide: Isovaleryl-DTHFPCIK([γGlu-Palmitoyl])FKC-NH2
modifications: disulfide 6-11
SMILES: CCCCCCCCCCCCCCCC(=O)N[C@@H](CCC(=O)NCCCC[C@@H]1NC(=O)[C@H]([C@@H](C)CC)NC(=O)[C@@H](NC(=O)[C@@H]2CCCN2C(=O)[C@H](Cc2ccccc2)NC(=O)[C@H](Cc2c[nH]cn2)NC(=O)[C@@H](NC(=O)[C@H](CC(=O)O)NC(=O)CC(C)C)[C@@H](C)O)CSSC[C@@H](C(N)=O)NC(=O)[C@H](CCCCN)NC(=O)[C@H](Cc2ccccc2)NC1=O)C(=O)O
B9: Compd ID 175 (peptide)
peptide: DTHXPCIKXKKC
modifications: N-terminal isovaleric acid; Dpa 4; (D)Lys 8; bhPhe 9; Lys(Peg11-Palm) 10; dLys_Ac 11; C-terminal amide; disulfide between the two Cys (6 and 12)
B10: Compd ID 169 (peptide)
peptide: DTHXPCIKXKKC
modifications: N-terminal isovaleric acid; D-Asp 1; Dpa 4; (D)Lys 8; bhPhe 9; Lys(Peg11-Palm) 10; (D)Lys 11; C-terminal amide; disulfide between the two Cys (6 and 12)
B11: Compd ID 223 (peptide)
peptide: Isovaleryl-DTHFPCIK([γGlu-Palmitoyl])FC-NH2
modifications: disulfide 6-10
SMILES: CCCCCCCCCCCCCCCC(=O)N[C@@H](CCC(=O)NCCCC[C@@H]1NC(=O)[C@H]([C@@H](C)CC)NC(=O)[C@@H](NC(=O)[C@@H]2CCCN2C(=O)[C@H](Cc2ccccc2)NC(=O)[C@H](Cc2c[nH]cn2)NC(=O)[C@@H](NC(=O)[C@H](CC(=O)O)NC(=O)CC(C)C)[C@@H](C)O)CSSC[C@@H](C(N)=O)NC(=O)[C@H](Cc2ccccc2)NC1=O)C(=O)O
B12: Compd ID 171 (peptide)
peptide: DTHXPCIKFKCK
modifications: N-terminal isovaleric acid; bhPhe 4; (D)Lys 8; Lys(Peg11-Palm) 10; (D)Lys 12; C-terminal amide; disulfide between the two Cys (6 and 11)
B13: Compd ID 517 (peptide)
chain: DTHFPCIKX
modifications: not fully specified; N-terminal isovaleric acid on each monomer; D-Lys 8; b-homoPhe 9; the two monomers linked through IDA-[(b-Ala)-Palm]; -NH2
B14: Compd ID 503 (peptide)
chain: DTHFPCIKF
modifications: N-terminal isovaleric acid on each monomer; D-Lys 8; the two monomers linked through Lys[isoGlu-Palm]-NH2
B15: Compd ID 220 (peptide)
peptide: Isovaleryl-DTHWPCIK([γGlu-Palmitoyl])[αMeF]C-NH2
modifications: disulfide 6-10
SMILES: CCCCCCCCCCCCCCCC(=O)N[C@@H](CCC(=O)NCCCC[C@@H]1NC(=O)[C@H]([C@@H](C)CC)NC(=O)[C@@H](NC(=O)[C@@H]2CCCN2C(=O)[C@H](Cc2c[nH]c3ccccc23)NC(=O)[C@H](Cc2c[nH]cn2)NC(=O)[C@@H](NC(=O)[C@H](CC(=O)O)NC(=O)CC(C)C)[C@@H](C)O)CSSC[C@@H](C(N)=O)NC(=O)[C@](C)(Cc2ccccc2)NC1=O)C(=O)O
B16: Compd ID 515 (peptide)
chain: DTHXPCIKX
modifications: N-terminal isovaleric acid on each monomer; BIP 4; D-Lys 8; NMe-Phe 9; the two monomers linked through IDA-[(b-Ala)-Palm]; -NH2
B17: Compd ID 224 (peptide)
peptide: Isovaleryl-DTHFPCI[dK]([PEG12-Palmitoyl])FKC-NH2
modifications: disulfide 6-11
SMILES: CCCCCCCCCCCCCCCC(=O)NCCOCCOCCOCCOCCOCCOCCOCCOCCOCCOCCOCCOCCC(=O)NCCCC[C@H]1NC(=O)[C@H]([C@@H](C)CC)NC(=O)[C@@H](NC(=O)[C@@H]2CCCN2C(=O)[C@H](Cc2ccccc2)NC(=O)[C@H](Cc2c[nH]cn2)NC(=O)[C@@H](NC(=O)[C@H](CC(=O)O)NC(=O)CC(C)C)[C@@H](C)O)CSSC[C@@H](C(N)=O)NC(=O)[C@H](CCCCN)NC(=O)[C@H](Cc2ccccc2)NC1=O
B18: RI-Mini Hepcidin (peptide)
peptide: FICIPFHTD
modifications: all residues D-amino acids (retro inverse); free N-terminus (Hy-); C-terminal amide
B19: Compd ID 508 (peptide)
chain: DTHFPCIKX
modifications: N-terminal isovaleric acid on each monomer; a-MePhe 9; the two monomers linked through IDA-[(b-Ala)-Palm]; -NH2
B20: Compd ID 501 (peptide)
chain: DTHFPCIKF
modifications: N-terminal isovaleric acid on each monomer; the two monomers linked through K-Lys[isoGlu-Palm]-NH2
B21: Compd ID 509 (peptide)
chain: DTHFPCIIFK
modifications: N-terminal isovaleric acid on each monomer; D-Lys 10; the two monomers linked through IDA-[(b-Ala)-Palm]; -NH2
B22: Compd ID 222 (peptide)
peptide: Isovaleryl-DTHFPCIK([PEG12-Palmitoyl])FC-NH2
modifications: disulfide 6-10
SMILES: CCCCCCCCCCCCCCCC(=O)NCCOCCOCCOCCOCCOCCOCCOCCOCCOCCOCCOCCOCCC(=O)NCCCC[C@@H]1NC(=O)[C@H]([C@@H](C)CC)NC(=O)[C@@H](NC(=O)[C@@H]2CCCN2C(=O)[C@H](Cc2ccccc2)NC(=O)[C@H](Cc2c[nH]cn2)NC(=O)[C@@H](NC(=O)[C@H](CC(=O)O)NC(=O)CC(C)C)[C@@H](C)O)CSSC[C@@H](C(N)=O)NC(=O)[C@H](Cc2ccccc2)NC1=O
B23: Compd ID 518 (peptide)
chain: Isovaleryl-DTHF[Npc″]CI[dK][NMeF]
modifications: not fully specified (C-terminus); also: dimer: two monomers linked through IDA-[(b-Ala)-Palm]-NH2
B24: Compd ID 507 (peptide)
chain: DTHFPCIKX
modifications: N-terminal isovaleric acid on each monomer; NMe-Phe 9; the two monomers linked through IDA-[(b-Ala)-Palm]; -NH2

Key:
Assay in all cases: cell-based or functional assay
[1] = target: T1, human ferroportin (SLC40A1) fused in …
[2] = target: T1, human ferroportin (SLC40A1) fused in …; remark: listed apart in the source
[3] = target: T1, human ferroportin (SLC40A1) fused in …; remark: listed apart in the source
[4] = target: T1, human ferroportin (SLC40A1) fused in …; remark: listed apart in the source

Row | Binder | FPN IC50 [2] [nM] | FPN IC50 [3] [nM] | other results
1 | B1 |  |  | FPN IC50 [1]: 10 nM
2 | B2 | 26 |  | 
3 | B3 |  | 4 | 
4 | H-DTHFPICIF-NH2 [Mini-Hepcidin 1-9] |  |  | Potency EC50 [4]: 712 nM
5 | B4 |  |  | Potency EC50 [4]: 30 nM
6 | B5 |  | 33 | 
7 | B6 |  | 6 | 
8 | Isovaleryl-DTHFPCI[dK]F-{IDA(βAla-Palm)-NH2} (also: dimer: two monomers joined through IDA) [Compd ID 506] |  | 4 | 
9 | B7 | 182 |  | 
10 | B8 | 114 |  | 
11 | B9 |  |  | FPN IC50 [1]: 5 nM
12 | B10 |  |  | FPN IC50 [1]: 12 nM
13 | B11 | 47 |  | 
14 | Isovaleryl-DTH[β3hF][Npc]CI[dK]FK([PEG12-Palmitoyl])C[dK]-NH2 (disulfide 6-11) [Compd ID 172] |  |  | FPN IC50 [1]: 39 nM
15 | B12 |  |  | FPN IC50 [1]: 47 nM
16 | B13 |  | 5 | 
17 | B14 |  | 21 | 
18 | B15 | 871 |  | 
19 | Isovaleryl-DTHF[NPC]CIK([γGlu-Palmitoyl])[αMeF]C-NH2 (disulfide 6-10) [Compd ID 221] | 79 |  | 
20 | Isovaleryl-DTHFPCIK[Phe(4-OCH2CH2NH2)]K-{Lys(isoGlu-Palm)-NH2} (also: dimer: two monomers linked through K-Lys[isoGlu-Palm]-NH2) [Compd ID 504] |  | 20 | 
21 | B16 |  | 26 | 
22 | B17 | 33 |  | 
23 | B18 |  |  | Potency EC50 (nM) [4]: > 10000 nM
24 | B19 |  | 9 | 
25 | Isovaleryl-DTHFPCI[dK]([PEG12-Palmitoyl])F[dR]C-NH2 (disulfide 6-11; not fully specified) [Compd ID 226] | 23 |  | 
26 | B20 |  | 28 | 
27 | B21 |  | 433 | 
28 | B22 | 4 |  | 
29 | B23 |  | 8 | 
30 | B24 |  | 10 | 
